Our source for the stoichiometry N (CckA per complex) values is doi:10.1101/323444.

Common to all, as to experiment: SEC
Background: SEC sorts molecules by how far they enter the pores of the column.

The target of assay [1] is CckA ΔPAS-A (Caulobacter crescentus).
The target in assay [2] is CckA ΔPAS-A-B ΔRD (Caulobacter crescentus).
The target of assay [3] is CckA ΔPAS-A ΔRD (Caulobacter crescentus).
Assay [4] addresses CckA (WT, N-terminal His-tag in place of its transmembrane helices) (Caulobacter crescentus) (UniProt Q9X688).

CckA ΔPAS-A (domain or fragment) yielded a stoichiometry N (CckA per complex) in assay [1] of 3.1.
The substance CckA ΔPAS-A-B ΔRD (domain or fragment) displayed a stoichiometry N (CckA per complex) in assay [2] of 2.
In assay [3], CckA ΔPAS-A ΔRD (domain or fragment) came in with a stoichiometry N (CckA per complex) of 2.
The substance “CckA (WT, N-terminal His-tag in place of its transmembrane helices) (from UniProt Q9X688 1-691) (enzyme)” displayed a stoichiometry N (CckA per complex) in assay [4] of 4.
